The record followed here is patent publication US20030208060A1 (published 2003).

Sequences and labels used below:
B3: MBP200 (membrane binding protein of ~200 kDa; human monocyte-macrophage apoB48 receptor, apoB48R) (receptor)
chain: MDFLRLYLPGLHQALRGALDSLGTFVSYLLGDAVPTVEREAQAAEELGVVAVGKTGKIVEEEAQEDLEGLRGSQNEGAGRLRGPGDDRRHEVGSSAVEQTWGWGDGSSHGSQAERQDSGAGETAKAARCQEPSAHLEARKKSKAGSGACQDRSGQAQERQESHEQEVNREERLRSWEQEEEEEEVRAREPGMARGAESEWTWHGETEGKAGAVGPKAAGDNREMEQGVREADAGETEEPGAEGAGKGEEVVVVEKACESTRAWGTWGPGAEPEDWGILGREEARTTPGREEARAILDGEEARTISGGEEAETASGGEEAETASGGEEAGTASGGEEAGISSGGEAGTASGGEEAGTASGGDEAWTTSGKEEADLLGVRQTQYGAVPGERLLEATGKVWVLEEEGDEEREAEVSPFPKQAQVLGTERTEEAAESQTAGREAVGGQEAGESFEGQVDLRGKEAEMRQDLGIRADRAKMEELVQAEEAQEERGSSRDPVAELPSDGEAEGTADLEATPEARPEEELTGEESEAAQTSCGLLGVEWGGLTHSVTKGQGPELMGGAQTPTKQPEEREAGEVELMGVLALSKEEQERSLEAGPRHAGSVKPEASEAFPGAWENRTRKDMERGNTQEDAADGEQREEEETAGGQTLAAEAEGDRESELSEVPEAGGEGLTTQDAGCGTEEGEASVSENQELDGSTGADAGPCPSLGEAYARETEDEEAEADRTSRRGWRLQAVAVGLPDREDAQTGSVAAGIMGGDVVPHISAAGAGEALEGALGQGWDSKEKEEAAAGEHAGGQEFGLEGSAEEEVTGRGSQVEAFESREGGPWGGRVEAEESAGAEDSCGLDPAGSQTARAEGMGAMVEAGGLLEKWTLLEEEAVGWQEREQREDSEGRCGDYHPEGEAPRLLDAEGLMVTGGRRAEAKETEPESLEHVRGQEEQPTHQAPAEAAPESVGEAETAEAMGSARGGAANSWSEAPLPGSLLDVSVPRSRVHLSRSSSQRRSRPSFRRTPAWEQQEEPPAPNPPEEELSAPEQRPLQLEEPLEPSPLRHDGTPVPARRRPLGHGFGLAHPGMMQELQARLGRPKPQ
notes: Native protein in Triton X-114 aqueous-phase extracts of THP-1 monocytes, run on non-reducing SDS-PAGE and blotted to nitrocellulose; Apparent Mr ~200 kD against ~114.8 kD deduced; also called TGRLP receptor; TGRLP/ApoB receptor

Data set [1] concerns the molecule itself. Put plainly: SDS-PAGE of the purified GST fusion protein.
Data set [2] concerns the molecule itself. Put plainly: SDS-PAGE of the purified fusion protein.
Data set [3] has as its target T1, normal VLDL Sf100-400 from a subject with normal plasma TG levels (human, UniProt P04114 28-4563).
T1 construct: Lipoprotein particle; also called N-V1; normal very low density lipoprotein
Put plainly: ligand blot; the binding is of lower affinity.

Data set [4] has as its target T2, intermediate density lipoprotein (human, UniProt P04114 28-4563).
T2 construct: Lipoprotein particle; also called IDL
Put plainly: ligand blot; the binding is of lower affinity.

In data set [5] the target is T3, low density lipoprotein (LDL) (human, UniProt P04114 28-4563).
T3 construct: Lipoprotein particle
Put plainly: ligand blot; lower affinity than HTG TGRLP and chylomicrons.

In data set [6] the target is B3. Put plainly: ligand blot. The protocol: The ligand blotting assay was performed essentially as described (Gianturco et al., 1988, 1994; Ramprasad et al., 1995) with minor modifications. Aliquots of the detergent extracts were electrophoresed on 5% polyacrylamide gels containing 0.1% SDS (Laemmli, 1970) under non-reducing conditions in a Bio-Rad minigel apparatus and electrotransferred to nitrocellulose. After blocking for 1 hour with 5% Carnation nonfat dry milk in ligand buffer (50 mM Tris-HCl (pH 8), 90 mM NaCl and 2 mM CaCl₂), the blots were rinsed with 0.5% milk in ligand buffer before incubation with lipoproteins in ligand buffer containing 0.05% milk (Gianturco et al., 1988).
For competitive ligand blots, TGRLP were biotinylated as described (O'Shannessy et al., 1984) and dialyzed extensively before use. […] After extensive washing, bound lipoprotein was detected by incubation with streptavidin linked to alkaline phosphatase, followed by substrates BCIP and NBT (Bio-Rad Laboratories, CA). In some experiments without antibodies as potential competitors, native, unlabeled TGRLP were used as the ligand, and bound TGRLP was detected with anti-apoB followed by alkaline phosphatase-linked secondary antibody. […]

T3 sequence (P04114 28-4563 limits assumed): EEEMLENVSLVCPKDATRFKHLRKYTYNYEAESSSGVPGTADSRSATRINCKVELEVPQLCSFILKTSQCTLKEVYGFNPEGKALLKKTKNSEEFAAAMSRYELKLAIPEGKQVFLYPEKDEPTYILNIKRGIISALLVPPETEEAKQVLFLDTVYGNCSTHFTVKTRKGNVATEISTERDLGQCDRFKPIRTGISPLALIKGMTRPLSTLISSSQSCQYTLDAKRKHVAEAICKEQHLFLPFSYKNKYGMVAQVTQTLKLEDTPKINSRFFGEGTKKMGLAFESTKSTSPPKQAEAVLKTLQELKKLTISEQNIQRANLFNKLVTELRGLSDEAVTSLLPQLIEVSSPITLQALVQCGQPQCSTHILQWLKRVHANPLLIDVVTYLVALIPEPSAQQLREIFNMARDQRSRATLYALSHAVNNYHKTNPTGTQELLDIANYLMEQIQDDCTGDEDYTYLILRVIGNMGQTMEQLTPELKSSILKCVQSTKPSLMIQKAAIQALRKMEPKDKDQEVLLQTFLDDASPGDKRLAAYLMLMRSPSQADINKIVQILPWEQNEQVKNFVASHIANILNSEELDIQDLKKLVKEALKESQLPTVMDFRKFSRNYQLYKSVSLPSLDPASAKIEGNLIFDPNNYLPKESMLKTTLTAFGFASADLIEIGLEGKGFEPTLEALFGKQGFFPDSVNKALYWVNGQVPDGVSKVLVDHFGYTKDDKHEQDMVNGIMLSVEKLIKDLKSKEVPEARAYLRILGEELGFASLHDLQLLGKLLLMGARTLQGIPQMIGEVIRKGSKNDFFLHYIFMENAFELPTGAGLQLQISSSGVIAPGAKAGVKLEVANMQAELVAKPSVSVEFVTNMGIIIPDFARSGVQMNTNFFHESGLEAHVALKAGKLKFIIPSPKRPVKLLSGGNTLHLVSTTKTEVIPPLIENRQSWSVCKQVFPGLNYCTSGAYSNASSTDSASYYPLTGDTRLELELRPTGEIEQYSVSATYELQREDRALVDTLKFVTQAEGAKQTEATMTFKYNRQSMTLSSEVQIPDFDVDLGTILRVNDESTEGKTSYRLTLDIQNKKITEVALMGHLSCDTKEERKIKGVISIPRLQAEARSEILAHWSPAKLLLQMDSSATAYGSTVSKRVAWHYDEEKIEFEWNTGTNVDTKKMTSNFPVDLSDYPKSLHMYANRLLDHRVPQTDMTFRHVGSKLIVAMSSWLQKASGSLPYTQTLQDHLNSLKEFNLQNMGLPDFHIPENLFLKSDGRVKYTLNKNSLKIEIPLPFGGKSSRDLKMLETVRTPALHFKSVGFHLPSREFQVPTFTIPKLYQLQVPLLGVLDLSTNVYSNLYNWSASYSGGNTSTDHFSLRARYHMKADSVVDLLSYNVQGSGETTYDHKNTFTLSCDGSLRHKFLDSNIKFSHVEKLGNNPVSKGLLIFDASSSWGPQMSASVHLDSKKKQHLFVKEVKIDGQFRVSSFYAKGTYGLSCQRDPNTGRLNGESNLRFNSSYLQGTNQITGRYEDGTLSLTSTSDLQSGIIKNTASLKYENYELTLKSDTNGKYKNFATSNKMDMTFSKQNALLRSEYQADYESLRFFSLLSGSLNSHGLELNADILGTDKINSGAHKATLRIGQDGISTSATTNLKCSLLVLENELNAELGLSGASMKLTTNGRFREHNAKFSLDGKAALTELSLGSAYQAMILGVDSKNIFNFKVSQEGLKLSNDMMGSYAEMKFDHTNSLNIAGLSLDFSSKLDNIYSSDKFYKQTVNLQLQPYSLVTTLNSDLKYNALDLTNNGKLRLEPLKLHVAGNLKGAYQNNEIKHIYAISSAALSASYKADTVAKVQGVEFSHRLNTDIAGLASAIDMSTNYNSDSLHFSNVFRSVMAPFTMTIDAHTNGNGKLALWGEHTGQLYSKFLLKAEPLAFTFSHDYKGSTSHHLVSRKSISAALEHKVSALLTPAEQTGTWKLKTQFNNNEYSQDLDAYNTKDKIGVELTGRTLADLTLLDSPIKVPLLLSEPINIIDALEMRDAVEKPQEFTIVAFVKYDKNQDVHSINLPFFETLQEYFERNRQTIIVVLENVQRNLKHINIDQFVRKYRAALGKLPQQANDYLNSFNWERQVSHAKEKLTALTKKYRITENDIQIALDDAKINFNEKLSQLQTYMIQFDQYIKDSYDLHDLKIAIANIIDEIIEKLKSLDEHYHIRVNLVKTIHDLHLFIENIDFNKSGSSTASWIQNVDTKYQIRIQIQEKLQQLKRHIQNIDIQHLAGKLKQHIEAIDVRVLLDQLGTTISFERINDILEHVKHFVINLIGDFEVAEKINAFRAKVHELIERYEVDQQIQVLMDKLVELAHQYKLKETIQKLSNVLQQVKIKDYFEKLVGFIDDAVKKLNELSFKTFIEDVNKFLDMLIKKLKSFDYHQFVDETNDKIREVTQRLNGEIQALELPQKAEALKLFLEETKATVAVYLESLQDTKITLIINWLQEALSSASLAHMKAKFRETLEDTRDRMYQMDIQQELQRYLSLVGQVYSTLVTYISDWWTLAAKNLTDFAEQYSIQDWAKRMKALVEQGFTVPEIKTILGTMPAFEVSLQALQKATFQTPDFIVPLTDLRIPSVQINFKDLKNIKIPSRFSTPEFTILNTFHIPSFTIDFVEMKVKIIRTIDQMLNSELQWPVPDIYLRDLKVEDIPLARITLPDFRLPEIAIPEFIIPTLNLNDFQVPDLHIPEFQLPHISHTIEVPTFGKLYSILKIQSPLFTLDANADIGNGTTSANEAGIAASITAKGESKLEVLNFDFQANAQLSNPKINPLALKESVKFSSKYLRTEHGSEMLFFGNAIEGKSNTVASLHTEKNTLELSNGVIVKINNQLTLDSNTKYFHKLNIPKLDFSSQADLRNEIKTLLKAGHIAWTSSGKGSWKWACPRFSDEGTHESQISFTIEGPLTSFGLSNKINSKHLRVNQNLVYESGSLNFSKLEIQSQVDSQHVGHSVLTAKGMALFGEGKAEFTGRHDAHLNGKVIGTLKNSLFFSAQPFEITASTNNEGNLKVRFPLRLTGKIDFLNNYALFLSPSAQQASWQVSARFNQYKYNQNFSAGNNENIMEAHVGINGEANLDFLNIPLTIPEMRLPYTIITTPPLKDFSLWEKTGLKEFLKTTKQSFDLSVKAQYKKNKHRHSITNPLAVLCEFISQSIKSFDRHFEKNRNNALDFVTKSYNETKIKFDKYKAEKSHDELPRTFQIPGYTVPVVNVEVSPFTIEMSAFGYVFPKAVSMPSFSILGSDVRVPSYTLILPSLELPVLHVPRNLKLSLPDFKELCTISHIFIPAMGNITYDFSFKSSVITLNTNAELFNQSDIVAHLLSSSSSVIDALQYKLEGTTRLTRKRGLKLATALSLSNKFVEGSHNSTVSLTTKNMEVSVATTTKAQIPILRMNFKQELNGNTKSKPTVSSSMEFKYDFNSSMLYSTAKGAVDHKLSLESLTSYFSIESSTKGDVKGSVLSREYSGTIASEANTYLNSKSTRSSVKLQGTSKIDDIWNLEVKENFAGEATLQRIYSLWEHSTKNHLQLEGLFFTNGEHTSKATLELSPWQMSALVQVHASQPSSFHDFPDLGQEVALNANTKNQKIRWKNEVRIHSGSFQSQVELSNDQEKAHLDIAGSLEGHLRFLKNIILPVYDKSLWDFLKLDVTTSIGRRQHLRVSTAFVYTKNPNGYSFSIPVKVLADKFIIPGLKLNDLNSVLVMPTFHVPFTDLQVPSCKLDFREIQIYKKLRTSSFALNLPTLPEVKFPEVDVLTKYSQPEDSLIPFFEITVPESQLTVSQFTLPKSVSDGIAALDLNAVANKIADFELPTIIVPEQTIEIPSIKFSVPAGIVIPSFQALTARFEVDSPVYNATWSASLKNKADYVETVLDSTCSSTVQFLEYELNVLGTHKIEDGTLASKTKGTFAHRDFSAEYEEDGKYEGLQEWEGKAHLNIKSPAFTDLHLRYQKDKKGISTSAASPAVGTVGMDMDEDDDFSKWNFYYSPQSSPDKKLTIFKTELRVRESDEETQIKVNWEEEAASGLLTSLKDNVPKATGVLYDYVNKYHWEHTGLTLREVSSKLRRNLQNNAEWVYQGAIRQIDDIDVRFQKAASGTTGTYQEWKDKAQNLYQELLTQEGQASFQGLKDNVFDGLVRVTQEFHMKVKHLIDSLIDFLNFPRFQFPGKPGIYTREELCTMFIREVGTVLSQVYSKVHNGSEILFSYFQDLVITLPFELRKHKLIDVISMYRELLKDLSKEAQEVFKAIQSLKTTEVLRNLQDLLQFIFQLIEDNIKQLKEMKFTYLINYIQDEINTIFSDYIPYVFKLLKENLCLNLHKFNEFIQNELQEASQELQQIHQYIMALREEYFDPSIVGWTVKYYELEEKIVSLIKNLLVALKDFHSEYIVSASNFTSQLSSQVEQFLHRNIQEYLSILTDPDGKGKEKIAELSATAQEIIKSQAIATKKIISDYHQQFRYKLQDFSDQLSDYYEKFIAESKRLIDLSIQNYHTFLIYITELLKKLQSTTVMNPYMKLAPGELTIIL
T2 sequence (P04114 28-4563 limits assumed): as above
T1 sequence (P04114 28-4563 limits assumed): as above

B1: GST fusion protein containing apoB48R amino acid 714-917 (other)
chain: RETEDEEAEADRTSRRGWRLQAVAVGLPDREDAQTGSVAAGIMGGDVVPHISAAGAGEALEGALGQGWDSKEKEEAAAGEHAGGQEFGLEGSAEEEVTGRGSQVEAFESREGGPWGGRVEAEESAGAEDSCGLDPAGSQTARAEGMGAMVEAGGLLEKWTLLEEEAVGWQEREQREDSEGRCGDYHPEGEAPRLLDAEGLMVTG
notes: not shown: glutathione-S-transferase of the pGEX-5X-3 vector (Pharmacia)
In the case of B1, in data set [1], the binding result is on record as “no binding”.

B2: glutathione-S-transferase (GST)-fusion protein containing apoB48R amino acid 223 to 710 (other)
chain: EMEQGVREADAGETEEPGAEGAGKGEEVVVVEKACESTRAWGTWGPGAEPEDWGILGREEARTTPGREEARAILDGEEARTISGGEEAETASGGEEAETASGGEEAGTASGGEEAGISSGGEAGTASGGEEAGTASGGDEAWTTSGKEEADLLGVRQTQYGAVPGERLLEATGKVWVLEEEGDEEREAEVSPFPKQAQVLGTERTEEAAESQTAGREAVGGQEAGESFEGQVDLRGKEAEMRQDLGIRADRAKMEELVQAEEAQEERGSSRDPVAELPSDGEAEGTADLEATPEARPEEELTGEESEAAQTSCGLLGVEWGGLTHSVTKGQGPELMGGAQTPTKQPEEREAGEVELMGVLALSKEEQERSLEAGPRHAGSVKPEASEAFPGAWENRTRKDMERGNTQEDAADGEQREEEETAGGQTLAAEAEGDRESELSEVPEAGGEGLTTQDAGCGTEEGEASVSENQELDGSTGADAGPCPSLGE
notes: Migrates as a dimer on SDS-PAGE; also called apoB48R-GST fusion protein (aa 223-710); not shown: glutathione-S-transferase of the pGEX-5X-3 vector (Pharmacia)
For B2, in data set [2], the binding result is reported as “binds”.
With B3, the binding result in data set [3], in data set [4] and in data set [5] was “binds” throughout.

B4: GST fusion protein containing apoB48R amino acid 629-1088 (other)
chain: QEDAADGEQREEEETAGGQTLAAEAEGDRESELSEVPEAGGEGLTTQDAGCGTEEGEASVSENQELDGSTGADAGPCPSLGEAYARETEDEEAEADRTSRRGWRLQAVAVGLPDREDAQTGSVAAGIMGGDVVPHISAAGAGEALEGALGQGWDSKEKEEAAAGEHAGGQEFGLEGSAEEEVTGRGSQVEAFESREGGPWGGRVEAEESAGAEDSCGLDPAGSQTARAEGMGAMVEAGGLLEKWTLLEEEAVGWQEREQREDSEGRCGDYHPEGEAPRLLDAEGLMVTGGRRAEAKETEPESLEHVRGQEEQPTHQAPAEAAPESVGEAETAEAMGSARGGAANSWSEAPLPGSLLDVSVPRSRVHLSRSSSQRRSRPSFRRTPAWEQQEEPPAPNPPEEELSAPEQRPLQLEEPLEPSPLRHDGTPVPARRRPLGHGFGLAHPGMMQELQARLGRPKPQ
notes: as for B1
In the case of B4, the binding result in data set [1] is “no binding”.

B5: human receptor-associated protein (RAP) (other, UniProt P30533 35-357, looked up)
chain: YSREKNQPKPSPKRESGEEFRMEKLNQLWEKAQRLHLPPVRLAELHADLKIQERDELAWKKLKLDGLDEDGEKEARLIRNLNVILAKYGLDGKKDARQVTSNSLSGTQEDGLDDPRLEKLWHKAKTSGKFSGEELDKLWREFLHHKEKVHEYNVLLETLSRTEEIHENVISPSDLSDIKGSVLHSRHTELKEKLRSINQGLDRLRRVSHQGYSTEAEFEEPRVIDLWDLAQSANLTDKELEAFREELKHFEAKIEKHNHYQKQLEIAHEKLRHAESVGDGERVSRSREKHALLEGRTKELGYTVKKHLQDLSGRISRARHNEL
Turning to B5, the binding result in data set [6] is “no binding”.
